B1: PLEKHM1‐LIR WT peptide (EDEWVNVQY), biotinylated [modified: biotin; biotin] [not stated] / 6xHis‐tagged LC3C [human] (parent complex)
chain 1: EDEWVNVQY
chain 2: MPPPQKIPSVRPFKQRKSLAIRQEEVAGIRAKFPNKIPVVVERYPRETFLPPLDKTKFLVPQELTMTQFLSIIRSRMVLRATEAFYLLVNNKSLVSMSATMAEIYRDYKDEDGFVYMTYASQETFG
B2: PLEKHM1‐LIR WT peptide (EDEWVNVQY), biotinylated [modified: biotin; biotin] [not stated] / 6xHis‐tagged GABARAP‐L1 [human] (parent complex)
chain 1: EDEWVNVQY
chain 2: not shown
B3: PLEKHM1‐LIR WT peptide (EDEWVNVQY), biotinylated [modified: biotin; biotin] [not stated] / 6xHis‐tagged LC3B [human] (parent complex)
chain 1: EDEWVNVQY
chain 2: not shown

Variants of: B1
Assay: peptide array ELISA (biotinylated peptide on streptavidin plate, 6xHis-mATG8, anti-His-HRP, TMB); absorbance at 450 nm; n = 4; read off a plot

Which screen value does the source give for chain 1 EDEWVAVQY [chain 1 N6A] here?
Its screen value is ~1.7 fold over mutLIR.

chain 1 EDEWVNAQY [chain 1 V7A] was tested. Which screen value did it give?
The screen value was ~1.4 fold over mutLIR.

Which screen value does the source give for chain 1 EDEWANVQY [chain 1 V5A] here?
The screen value was ~1.5 fold over mutLIR.

How did the screen value turn out when chain 1 EDEWAAVQY [chain 1 V5A, chain 1 N6A] was run?
The screen value was ~1.2 fold over mutLIR.

Variants of: B1
Assay: peptide array (biotinylated LIR peptide, 6xHis-mATG8, absorbance); n = 3; read off a plot

With chain 1 EDEWVNIQY [chain 1 V7I] as the variant, how does the percent of parent read?
The percent of parent was ~110 % Mutant LIR/WT.

How did the percent of parent turn out when chain 1 EDEWVNLQY [chain 1 V7L] was run?
Its percent of parent is ~85 % Mutant LIR/WT.

chain 1 EDEAVNAQY [chain 1 W4A, chain 1 V7A] was tested. Which percent of parent did it give?
The percent of parent was ~5 % Mutant LIR/WT.

For chain 1 EDEYVNVQY [chain 1 W4Y], which percent of parent is on record?
Its percent of parent is ~25 % Mutant LIR/WT.

chain 1 EDEFVNVQY [chain 1 W4F] was tested. Which percent of parent did it give?
Its percent of parent is ~50 % Mutant LIR/WT.

Variants of: B2
Assay: peptide array ELISA (biotinylated peptide on streptavidin plate, 6xHis-mATG8, anti-His-HRP, TMB); absorbance at 450 nm; n = 4; read off a plot

For chain 1 N6A, which screen value is on record?
The screen value was ~9.9 fold over mutLIR.

chain 1 V5A was tested. Which screen value did it give?
Its screen value is ~1.7 fold over mutLIR.

chain 1 V7A was tested. Which screen value did it give?
The screen value was ~2 fold over mutLIR.

Which screen value does the source give for chain 1 V5A, chain 1 N6A here?
Its screen value is ~1.3 fold over mutLIR.

Variants of: B2
Assay: peptide array (biotinylated LIR peptide, 6xHis-mATG8, absorbance); n = 3; read off a plot

chain 1 V7L was tested. Which percent of parent did it give?
The percent of parent was ~110 % Mutant LIR/WT.

How did the percent of parent turn out when chain 1 V7I was run?
Its percent of parent is ~95 % Mutant LIR/WT.

Which percent of parent does the source give for chain 1 W4F here?
The percent of parent was ~60 % Mutant LIR/WT.

How did the percent of parent turn out when chain 1 W4Y was run?
Its percent of parent is ~55 % Mutant LIR/WT.

chain 1 W4A, chain 1 V7A was tested. Which percent of parent did it give?
Its percent of parent is ~7 % Mutant LIR/WT.

Variants of: B3
Assay: peptide array (biotinylated LIR peptide, 6xHis-mATG8, absorbance); n = 5; read off a plot

Which ratio to parent does the source give for chain 1 V5C, chain 1 N6F, chain 1 V7L here?
The ratio to parent was ~1.9.

How did the ratio to parent turn out when chain 1 V5C, chain 1 N6I, chain 1 V7L was run?
Its ratio to parent is ~2.4.

With chain 1 W4A, chain 1 V7A as the variant, how does the ratio to parent read?
Its ratio to parent is ~0.17.

For chain 1 V5C, chain 1 N6V, chain 1 V7L, which ratio to parent is on record?
Its ratio to parent is ~2.3.

Variants of: B3
Assay: peptide array (biotinylated LIR peptide, 6xHis-mATG8, absorbance); n = 3; read off a plot

chain 1 V7L was tested. Which percent of parent did it give?
The percent of parent was ~250 % Mutant LIR/WT.

Which percent of parent does the source give for chain 1 V7I here?
Its percent of parent is ~200 % Mutant LIR/WT.

Which percent of parent does the source give for chain 1 W4A, chain 1 V7A here?
Its percent of parent is ~8 % Mutant LIR/WT.

How did the percent of parent turn out when chain 1 W4Y was run?
Its percent of parent is ~10 % Mutant LIR/WT.

Which percent of parent does the source give for chain 1 W4F here?
Its percent of parent is ~8 % Mutant LIR/WT.

Source: publication PMC5538626 (2017)
